Data set [1] deals with T1, syndecan-3 full length cytoplasmic domain fused to the Gal4 DNA-binding domain (UniProt P04386 1-147; O75056 410-442).
T1 construct: also called Gal4-syndecan bait
Briefly: yeast two-hybrid. The text has this: (§1) The yeast two-hybrid system (Chien et al, 1991; P.N.A.S., 88, 9578–9582) was used to identify the domains of sycl and the residues in the syndecan cytoplasmic domains that are responsible for the syndecan-sycl interaction. Different parts of the original clone (3p11) and of the sycl cDNA were subcloned in the pGAD10 vector (Clontech Laboratories), to code for fusions between the activating domain of Gal4 (Gal4 AD) and various full length, truncated, deleted, point-mutated, or epitope-tagged versions of sycl. […] But a requirement for paired PDZ domains (for instance two PDZ1 or two PDZ2 domains) has also been observed for the interactions of the GRIP adaptor protein with AMPA receptors 12 and the interaction of hDlg with the cytoplasmic domain of the Shaker-type K+channel.
(§2) Baits, comprising at least a cytoplasmic domain FYA (corresponds to Phe-Tyr-Ala) as C-terminal sequence of syndecans fused in frame to the DNA-binding domain of Gal4, were constructed by PCR, using the BamHI/SalI restriction sites of the pAS2 vector (Clontech Laboratories), and used to screen a human liver cDNA library (Clontech Laboratories) cloned in pGAD10. The pAS2 plasmids and library were cotransfected in CG1945 yeast cells, and positive clones were selected on triple minus plates (Leu-, Trp-, His-) and assayed for b-galactosidase activity. Positive cDNA clones were cotransfected with all four bait vectors and with the original pAS2 vector cells to confirm the interaction.

The target in data set [2] is T2, syndecan-2 full length cytoplasmic domain fused to the Gal4 DNA-binding domain (UniProt P04386 1-147; P34741 170-201).
T2 construct: also called Gal4-syndecan bait
Briefly: yeast two-hybrid.
Description: as §1, §2

Data set [3] concerns the molecule itself. The data set can be described thus: ligand blot.
Data set [4] has as its target T3, GST (glutathione S-transferase) itself (UniProt P08515 1-218 = GST).
T3 construct: Control; also called isolated GST-moiety
The data set can be described thus: ligand blot.

T3 sequence (P08515 whole entry): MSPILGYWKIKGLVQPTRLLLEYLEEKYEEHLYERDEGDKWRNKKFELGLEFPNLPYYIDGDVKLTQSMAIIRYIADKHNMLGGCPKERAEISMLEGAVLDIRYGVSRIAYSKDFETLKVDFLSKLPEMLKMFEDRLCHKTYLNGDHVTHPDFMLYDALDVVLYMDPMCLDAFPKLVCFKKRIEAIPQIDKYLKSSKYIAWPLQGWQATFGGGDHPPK

B1: N-terminal domain of sycl alone fused to Gal4 activating domain (other, not shown: large carriers)
chain: MSLYPSLEDLKVDKVIQAQTAFSANPANPAILSEASAPIPHDGNLYPRLYPELSQYMGLSLNEEEIRASVAVVSGAPLQGQLVARPSSINYMVAPVTGNDVGIRRAEIKQGIR
notes: also called The N-terminal domain alone
B1: the binding result in data set [1] and in data set [2] was “no binding” throughout.

B2: second PDZ domain of sycl alone fused to Gal4 activating domain (other, not shown: large carriers)
chain: PFERTITMHKDSTGHVGFIFKNGKITSIVKDSSAARNGLLTEHNICEINGQNVIGLKDSQIADILSTSGTVVTITIMPAFI
notes: also called PDZ-2 alone; either of the two PDZ domains alone
For B2, the binding result in data set [1] and in data set [2] was “no binding” each time.

B3: GST-sycl M92 (sycl sequence starting at M92) fusion protein (other)
chain: MVAPVTGNDVGIRRAEIKQGIREVILCKDQDGKIGLRLKSIDNGIFVQLVQANSPASLVGLRFGDQVLQINGENCAGWSSDKAHKVLKQAFGEKITMTIRDRPFERTITMHKDSTGHVGFIFKNGKITSIVKDSSAARNGLLTEHNICEINGQNVIGLKDSQIADILSTSGTVVTITIMPAFIFEHIIKRMAPSIMKSLMDHTIPEV
notes: Expressed in E. coli BL21; not shown: glutathione S-transferase (GST) as encoded by vector pGEX-5X-2
With B3, the binding result in data set [3] and in data set [4] was “no binding” each time.

B4: first PDZ domain of sycl alone fused to Gal4 activating domain (other, not shown: large carriers)
chain: VGIRRAEIKQGIREVILCKDQDGKIGLRLKSIDNGIFVQLVQANSPASLVGLRFGDQVLQINGENCAGWSSDKAHKVLKQAFGEKITMTIRDR
notes: also called PDZ-1 alone; either of the two PDZ domains alone
For B4, the binding result in data set [1] and in data set [2] was “no binding” each time.

Values taken from patent US6368811 (VLAAMS INTERUNIVERSITAIR INSTITUUT VOOR BIOTECHNOLOGIE, dated 2002).
